The values below come from publication PMC11459180, “Structural basis for adhesin secretion by the outer-membrane usher in type 1 pili” (Proceedings of the National Academy of Sciences of the …, 2024).

The target of one assay is T1, adhesin FimH (wild type) (Escherichia coli, UniProt P08191 22-300).
T1 construct: also called FimHWT; tip adhesin
Kind of assay: cryo-EM structure; FimD–FimCH complex, second class of particles in the same purified sample and dataset; ~3.5 Å; map fits PDB 3RFZ. To be noted: both partners purified.

The target of assay [1] is T2, outer-membrane usher FimD (Escherichia coli, UniProt P30130 46-878).
T2 sequence: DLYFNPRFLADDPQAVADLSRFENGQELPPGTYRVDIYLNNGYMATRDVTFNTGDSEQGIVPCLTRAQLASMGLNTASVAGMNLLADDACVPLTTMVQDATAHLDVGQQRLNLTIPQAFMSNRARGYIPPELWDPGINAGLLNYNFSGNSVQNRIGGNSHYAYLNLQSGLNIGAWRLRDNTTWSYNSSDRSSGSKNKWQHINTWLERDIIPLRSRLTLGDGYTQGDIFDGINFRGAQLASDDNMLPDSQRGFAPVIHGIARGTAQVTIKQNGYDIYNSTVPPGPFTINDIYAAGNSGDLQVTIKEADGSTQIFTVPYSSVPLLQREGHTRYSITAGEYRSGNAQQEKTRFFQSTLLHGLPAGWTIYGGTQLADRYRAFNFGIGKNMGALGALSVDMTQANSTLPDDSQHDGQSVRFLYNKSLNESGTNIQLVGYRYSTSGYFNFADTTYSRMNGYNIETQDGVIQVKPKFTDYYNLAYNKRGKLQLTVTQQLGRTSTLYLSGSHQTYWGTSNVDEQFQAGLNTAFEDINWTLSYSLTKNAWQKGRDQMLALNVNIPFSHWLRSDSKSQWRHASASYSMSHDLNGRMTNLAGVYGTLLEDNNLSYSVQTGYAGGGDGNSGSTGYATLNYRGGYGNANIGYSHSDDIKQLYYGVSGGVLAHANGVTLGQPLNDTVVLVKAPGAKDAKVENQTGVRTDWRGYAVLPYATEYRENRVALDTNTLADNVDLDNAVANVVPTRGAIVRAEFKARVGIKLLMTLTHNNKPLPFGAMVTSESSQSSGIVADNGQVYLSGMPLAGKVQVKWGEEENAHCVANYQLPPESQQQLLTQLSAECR
Briefly: cryo-EM structure. The conditions noted are these: both partners purified.

T1 sequence (P08191 22-300): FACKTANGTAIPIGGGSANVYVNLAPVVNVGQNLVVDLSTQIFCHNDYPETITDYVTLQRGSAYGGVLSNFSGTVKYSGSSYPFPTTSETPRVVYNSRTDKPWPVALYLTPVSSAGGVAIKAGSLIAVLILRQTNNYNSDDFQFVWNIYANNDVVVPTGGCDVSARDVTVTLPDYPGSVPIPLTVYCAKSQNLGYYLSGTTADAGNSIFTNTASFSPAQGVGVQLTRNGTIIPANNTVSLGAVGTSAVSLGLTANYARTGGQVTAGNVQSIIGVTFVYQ

B1: periplasmic chaperone FimC with a C-terminal polyhistidine tag (natural protein)
chain: GVALGATRVIYPAGQKQEQLAVTNNDENSTYLIQSWVENADGVKDGRFIVTPPLFAMKGKKENTLRILDATNNQLPQDRESLFWMNVKAIPSMDKSKLTENTLQLAIISRIKLYYRPAKLALPPDQAAEKLRFRRSANSLTLINPTPYYLTVTELNAGTRVLENALVPPMGESTVKLPSDAGSNITYRTINDYGALTPKMTGVME
notes: also called FimChis; FimCHis; not shown: polyhistidine, C-terminal, kept
For B1, the binding result (in the assay with adhesin FimH (wild type); in assay [1]) was “binds” in each case.
